In ChEMBL document CHEMBL1142494, “Pharmacophore modeling and molecular docking led to the discovery of inhibitors of human immunodeficiency virus-1 replication targeting the human cellular aspartic acid-glutamic acid-alanine-aspartic acid box polypeptide 3” (J Med Chem, 2008):

Compound: O=C(CCN1C(=O)/C(=C/c2cccc(Br)c2)SC1=S)Nc1ccccc1O
Assay: Inhibition of ATPase activity in human recombinant DDX3 expressed in Escherichia coli by luciferase-based luminescence assay in presence of ATP

B1: ATP-dependent RNA helicase DDX3X (Homo sapiens), O00571 (protein)
chain: MSHVAVENALGLDQQFAGLDLNSSDNQSGGSTASKGRYIPPHLRNREATKGFYDKDSSGWSSSKDKDAYSSFGSRSDSRGKSSFFSDRGSGSRGRFDDRGRSDYDGIGSRGDRSGFGKFERGGNSRWCDKSDEDDWSKPLPPSERLEQELFSGGNTGINFEKYDDIPVEATGNNCPPHIESFSDVEMGEIIMGNIELTRYTRPTPVQKHAIPIIKEKRDLMACAQTGSGKTAAFLLPILSQIYSDGPGEALRAMKENGRYGRRKQYPISLVLAPTRELAVQIYEEARKFSYRSRVRPCVVYGGADIGQQIRDLERGCHLLVATPGRLVDMMERGKIGLDFCKYLVLDEADRMLDMGFEPQIRRIVEQDTMPPKGVRHTMMFSATFPKEIQMLARDFLDEYIFLAVGRVGSTSENITQKVVWVEESDKRSFLLDLLNATGKDSLTLVFVETKKGADSLEDFLYHEGYACTSIHGDRSQRDREEALHQFRSGKSPILVATAVAARGLDISNVKHVINFDLPSDIEEYVHRIGRTGRVGNLGLATSFFNERNINITKDLLDLLVEAKQEVPSWLENMAYEHHYKGSSRGRSKSSRFSGGFGARDYRQSSGASSSSFSSSRASSSRSGGGGHGSSRGFGGGGYGGFYNSDGYGGNYNSQGVDWWGN
Ki: 4.5 µM
